In patent US20220340678A1 one finds response in competition assay and EC50 data, which are given here for 1 molecule.

Assay [1] has as its target biotinylated human uPAR (human), Q03405. The assay can be described thus: BLI (Octet) on biotinylated human uPAR; row 'None': no first antibody.
For assay [2], the target named is human uPAR expressed on HEK293 cells (human), Q03405. The assay can be described thus: flow cytometry, HEK293 cells expressing human uPAR, 100 nM uPA present. Background: In flow cytometry, cells or beads pass a laser one at a time.
Assay [3] concerns the target biotinylated human uPAR (human), Q03405. The assay can be described thus: BLI (Octet) competition on biotinylated human uPAR; competitor (first antibody): M1.
Assay [4] shares this target. The assay can be described thus: BLI (Octet) competition on biotinylated human uPAR; competitor (first antibody): M5.
Assay [5] shares this target. The assay can be described thus: BLI (Octet) competition on biotinylated human uPAR; competitor (first antibody): ATN-368 (ATN-658). On the technique in general: BLI is a label-free optical method that tracks binding on a fibre tip over time.

B1: ATN-658 (antibody)
chain 1: not shown
chain 2: VQLQESGPELVKTGASVKISCKASGYSFTSYYMHWVKQSHGKSLEWIGEINPYNGGASYNQKIKGRATFTVDTSSRTAYMQFNSLTSEDSAVYYCARSIYGHSVLDYWGQGTTVTVS
modifications: not checked
Turning to B1, the response in competition assay in assay [1] is 0.33; in assay [3], -0.0144; in assay [4], 0.387; in assay [5], -0.0274. The EC50 (commonly the midpoint of the concentration-response curve) in assay [2] is 3.99 nM.
